B1: FBF1 (parent)
chain: FGDSPKAEKRQIGDQEGPRPARST

Variants of: B1
Test: protein stability index of a GFP-peptide fusion (GPS, HEK-293T) (PSI 1-6); higher = more stable
Settings: c terminus: a fixed tail appended
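Further: lentivirally expressed fusions sorted by FACS into six bins by GFP to DsRed ratio, PSI derived from sequencing read proportions per bin multiplied by bin number.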

Variant | protein stability index
FGFSPKAEKRQIGDQEGPRPARST [D3F] | 5.01
FGHSPKAEKRQIGDQEGPRPARST [D3H] | 4.49
FGISPKAEKRQIGDQEGPRPARST [D3I] | 5.04
FGKSPKAEKRQIGDQEGPRPARST [D3K] | 4.17
FGLSPKAEKRQIGDQEGPRPARST [D3L] | 5.13
FGMSPKAEKRQIGDQEGPRPARST [D3M] | 4.57
FGNSPKAEKRQIGDQEGPRPARST [D3N] | 5.06
FGPSPKAEKRQIGDQEGPRPARST [D3P] | 5.14
FGQSPKAEKRQIGDQEGPRPARST [D3Q] | 5.25
FGRSPKAEKRQIGDQEGPRPARST [D3R] | 4.97
FGSSPKAEKRQIGDQEGPRPARST [D3S] | 4.89
FGTSPKAEKRQIGDQEGPRPARST [D3T] | 4.99
FGVSPKAEKRQIGDQEGPRPARST [D3V] | 5.55
FGWSPKAEKRQIGDQEGPRPARST [D3W] | 3.87
FGYSPKAEKRQIGDQEGPRPARST [D3Y] | 4.67
FGDAPKAEKRQIGDQEGPRPARST [S4A] | 4.3
FGDCPKAEKRQIGDQEGPRPARST [S4C] | 5.01
FGDDPKAEKRQIGDQEGPRPARST [S4D] | 5.43
FGDEPKAEKRQIGDQEGPRPARST [S4E] | 5.2
FGDFPKAEKRQIGDQEGPRPARST [S4F] | 4.75
FGDGPKAEKRQIGDQEGPRPARST [S4G] | 4.96
FGDHPKAEKRQIGDQEGPRPARST [S4H] | 5.43
FGDIPKAEKRQIGDQEGPRPARST [S4I] | 5.33
FGDKPKAEKRQIGDQEGPRPARST [S4K] | 4.79

Variant | protein stability index
FGDLPKAEKRQIGDQEGPRPARST [S4L] | 5.27
FGDMPKAEKRQIGDQEGPRPARST [S4M] | 4.68
FGDNPKAEKRQIGDQEGPRPARST [S4N] | 4.79
FGDPPKAEKRQIGDQEGPRPARST [S4P] | 5.05
FGDQPKAEKRQIGDQEGPRPARST [S4Q] | 4.75
FGDRPKAEKRQIGDQEGPRPARST [S4R] | 4.88
FGDTPKAEKRQIGDQEGPRPARST [S4T] | 4.16
FGDVPKAEKRQIGDQEGPRPARST [S4V] | 5.61
FGDWPKAEKRQIGDQEGPRPARST [S4W] | 2.73
FGDYPKAEKRQIGDQEGPRPARST [S4Y] | 4.31
FGDSAKAEKRQIGDQEGPRPARST [P5A] | 4.85
FGDSCKAEKRQIGDQEGPRPARST [P5C] | 4.63
FGDSDKAEKRQIGDQEGPRPARST [P5D] | 5.72
FGDSEKAEKRQIGDQEGPRPARST [P5E] | 5.24
FGDSFKAEKRQIGDQEGPRPARST [P5F] | 3.64
FGDSGKAEKRQIGDQEGPRPARST [P5G] | 4.79
FGDSHKAEKRQIGDQEGPRPARST [P5H] | 5
FGDSIKAEKRQIGDQEGPRPARST [P5I] | 4.89
FGDSKKAEKRQIGDQEGPRPARST [P5K] | 4.43
FGDSLKAEKRQIGDQEGPRPARST [P5L] | 4.58
FGDSMKAEKRQIGDQEGPRPARST [P5M] | 4.88
FGDSNKAEKRQIGDQEGPRPARST [P5N] | 5.53
FGDSQKAEKRQIGDQEGPRPARST [P5Q] | 4.55
FGDSRKAEKRQIGDQEGPRPARST [P5R] | 4.75

Variant | protein stability index
FGDSSKAEKRQIGDQEGPRPARST [P5S] | 4.84
FGDSTKAEKRQIGDQEGPRPARST [P5T] | 5.19
FGDSVKAEKRQIGDQEGPRPARST [P5V] | 4.13
FGDSWKAEKRQIGDQEGPRPARST [P5W] | 1.37
FGDSYKAEKRQIGDQEGPRPARST [P5Y] | 4.86
FGDSPAAEKRQIGDQEGPRPARST [K6A] | 5.55
FGDSPCAEKRQIGDQEGPRPARST [K6C] | 5.52
FGDSPDAEKRQIGDQEGPRPARST [K6D] | 5.22
FGDSPEAEKRQIGDQEGPRPARST [K6E] | 5.25
FGDSPFAEKRQIGDQEGPRPARST [K6F] | 4.06
FGDSPIAEKRQIGDQEGPRPARST [K6I] | 4.78
FGDSPLAEKRQIGDQEGPRPARST [K6L] | 4.84
FGDSPNAEKRQIGDQEGPRPARST [K6N] | 5.08
FGDSPPAEKRQIGDQEGPRPARST [K6P] | 4.89
FGDSPQAEKRQIGDQEGPRPARST [K6Q] | 3.71
FGDSPSAEKRQIGDQEGPRPARST [K6S] | 5.64
FGDSPTAEKRQIGDQEGPRPARST [K6T] | 5.56
FGDSPVAEKRQIGDQEGPRPARST [K6V] | 4.24
FGDSPWAEKRQIGDQEGPRPARST [K6W] | 4.57
FGDSPYAEKRQIGDQEGPRPARST [K6Y] | 4.8
FGDSPKDEKRQIGDQEGPRPARST [A7D] | 5.53
FGDSPKEEKRQIGDQEGPRPARST [A7E] | 5.89
FGDSPKFEKRQIGDQEGPRPARST [A7F] | 3.85
FGDSPKGEKRQIGDQEGPRPARST [A7G] | 4.89

Variant | protein stability index
FGDSPKHEKRQIGDQEGPRPARST [A7H] | 4.03
FGDSPKIEKRQIGDQEGPRPARST [A7I] | 5.03
FGDSPKKEKRQIGDQEGPRPARST [A7K] | 5.31
FGDSPKLEKRQIGDQEGPRPARST [A7L] | 5.32
FGDSPKNEKRQIGDQEGPRPARST [A7N] | 5.24
FGDSPKQEKRQIGDQEGPRPARST [A7Q] | 5.1
FGDSPKREKRQIGDQEGPRPARST [A7R] | 5.15
FGDSPKSEKRQIGDQEGPRPARST [A7S] | 5.09
FGDSPKTEKRQIGDQEGPRPARST [A7T] | 4.44
FGDSPKVEKRQIGDQEGPRPARST [A7V] | 3.47
FGDSPKYEKRQIGDQEGPRPARST [A7Y] | 4
FGDSPKAAKRQIGDQEGPRPARST [E8A] | 4.84
FGDSPKACKRQIGDQEGPRPARST [E8C] | 4.11
FGDSPKADKRQIGDQEGPRPARST [E8D] | 5.48
FGDSPKAFKRQIGDQEGPRPARST [E8F] | 3.27
FGDSPKAIKRQIGDQEGPRPARST [E8I] | 4.26
FGDSPKALKRQIGDQEGPRPARST [E8L] | 3.87
FGDSPKANKRQIGDQEGPRPARST [E8N] | 4.53
FGDSPKAPKRQIGDQEGPRPARST [E8P] | 4.97
FGDSPKAQKRQIGDQEGPRPARST [E8Q] | 4.48
FGDSPKARKRQIGDQEGPRPARST [E8R] | 4.43
FGDSPKASKRQIGDQEGPRPARST [E8S] | 4.58

Reference: the supplement of paper PMC10567573
